Data on 1 molecule can be found in publication doi:10.1101/481457 (bioRxiv, 2019).

The target of this test is T1, CBP Full-HAT domain (central core catalytic region), 6His-tagged (mouse, UniProt P45481 1096-1700).
T1 sequence (looked up): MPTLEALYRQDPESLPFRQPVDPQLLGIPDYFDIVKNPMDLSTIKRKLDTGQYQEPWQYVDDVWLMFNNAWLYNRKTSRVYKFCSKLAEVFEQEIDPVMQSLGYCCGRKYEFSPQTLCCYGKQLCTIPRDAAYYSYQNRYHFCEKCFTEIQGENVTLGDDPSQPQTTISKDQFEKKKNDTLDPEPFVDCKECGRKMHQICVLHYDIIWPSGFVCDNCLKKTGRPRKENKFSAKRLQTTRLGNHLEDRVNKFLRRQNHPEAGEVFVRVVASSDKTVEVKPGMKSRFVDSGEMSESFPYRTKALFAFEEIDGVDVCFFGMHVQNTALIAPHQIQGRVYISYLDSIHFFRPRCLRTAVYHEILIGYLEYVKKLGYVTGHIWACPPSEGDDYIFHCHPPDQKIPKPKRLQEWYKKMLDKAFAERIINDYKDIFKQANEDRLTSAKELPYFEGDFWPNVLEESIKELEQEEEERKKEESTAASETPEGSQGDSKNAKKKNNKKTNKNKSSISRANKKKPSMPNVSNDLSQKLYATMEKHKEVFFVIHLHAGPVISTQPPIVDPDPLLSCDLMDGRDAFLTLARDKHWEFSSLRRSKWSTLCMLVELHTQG
The test is described as follows: BLI. In general terms: BLI is a label-free optical method that tracks binding on a fibre tip over time.

B1: biotinylated recombinant full-length HSF2 (natural protein, UniProt Q03933 1-536, looked up)
chain: MKQSSNVPAFLSKLWTLVEETHTNEFITWSQNGQSFLVLDEQRFAKEILPKYFKHNNMASFVRQLNMYGFRKVVHIDSGIVKQERDGPVEFQHPYFKQGQDDLLENIKRKVSSSKPEENKIRQEDLTKIISSAQKVQIKQETIESRLSELKSENESLWKEVSELRAKHAQQQQVIRKIVQFIVTLVQNNQLVSLKRKRPLLLNTNGAQKKNLFQHIVKEPTDNHHHKVPHSRTEGLKPRERISDDIIIYDVTDDNADEENIPVIPETNEDVISDPSNCSQYPDIVIVEDDNEDEYAPVIQSGEQNEPARESLSSGSDGSSPLMSSAVQLNGSSSLTSEDPVTMMDSILNDNINLLGKVELLDYLDSIDCSLEDFQAMLSGRQFSIDPDLLVDLFTSSVQMNPTDYINNTKSENKGLETTKNNVVQPVSEEGRKSKSKPDKQLIQYTAFPLLAFLDGNPASSVEQASTTASSEVLSSVDKPIEVDELLDSSLDPEPTQSKLVRLEPLTEAEASEATLFYLCELAPAPLDSDMPLLDS
modifications: biotinylated with EZ-Link NHS-PEG4-Biotin at a molar ratio biotin/protein 3:1
As for B1, the Kd stood at 1 nM.

By Kd is commonly meant the constant that tells how readily two partners part at equilibrium.
